Tests used:
NB1 cells [1] = experiment: Crizotinib titration and co-titration with ALK antibodies, killing of NB1 cells; type: cell-based, human; conditions: co-titration of crizotinib with the antibody
NB1 cells [2] = experiment: NB1 cell morphology; type: cell-based, human; conditions: NB1 cells treated with antibody
Text: By contrast, treatment with Ab324, an ALK agonist, caused the cells to spread out.

[3] = system: ALK on the surface of NB1 cells; experiment: KD determination by flow cytometry on NB1 cells; type: binding; conditions: NB1 (human) cells, FACS, mean
Experimental: FIG. 3 depicts the apparent affinities (KD) of ALK antibodies for ALK expression on the surface of NB1 cells. KD was determined by flow cytometry. Titration of each antibody on NB1 cells for 2-4 hours at 4° C. was followed by incubation with a fluorescently-labeled secondary antibody. The normalized mean fluorescent intensity […] shown as “% Max binding” was plotted as a function of antibody concentration.
Flow cytometry was utilized to measure the affinity at steady state (KD) with which different ALK antibodies bind to ALK on the surface of NB1 cells (FIG. 3). Titration of each antibody on NB1 cells for 2-4 hours at 4° C. was followed by incubation with a fluorescently-labeled secondary antibody. The normalized mean fluorescent intensity (MFI) shown as “% Max binding” was plotted as a function of antibody concentration. The data were fit to a one site binding isotherm using GraphPad Prism, from which affinity values were derived.
(§1) Amino acid residues that differ between rat ALK and mouse ALK are boxed. KD values for both NB1 (human) cells and Neuro2a (mouse) cells were also determined.

[4] = molecular target: T1, cell surface mALK on Neuro2a cells (Mus musculus, UniProt P97793); experiment: KD of humanized antibodies on Neuro2a (mouse) cells; type: binding; conditions: FACS, mean
T1 construct: Neuro-2a cells that express low levels of endogenous murine ALK; endogenous in cells; host or cells: Neuro-2a (Neuro2a) mouse neuroblastoma cells
T1 sequence (P97793 19-1621): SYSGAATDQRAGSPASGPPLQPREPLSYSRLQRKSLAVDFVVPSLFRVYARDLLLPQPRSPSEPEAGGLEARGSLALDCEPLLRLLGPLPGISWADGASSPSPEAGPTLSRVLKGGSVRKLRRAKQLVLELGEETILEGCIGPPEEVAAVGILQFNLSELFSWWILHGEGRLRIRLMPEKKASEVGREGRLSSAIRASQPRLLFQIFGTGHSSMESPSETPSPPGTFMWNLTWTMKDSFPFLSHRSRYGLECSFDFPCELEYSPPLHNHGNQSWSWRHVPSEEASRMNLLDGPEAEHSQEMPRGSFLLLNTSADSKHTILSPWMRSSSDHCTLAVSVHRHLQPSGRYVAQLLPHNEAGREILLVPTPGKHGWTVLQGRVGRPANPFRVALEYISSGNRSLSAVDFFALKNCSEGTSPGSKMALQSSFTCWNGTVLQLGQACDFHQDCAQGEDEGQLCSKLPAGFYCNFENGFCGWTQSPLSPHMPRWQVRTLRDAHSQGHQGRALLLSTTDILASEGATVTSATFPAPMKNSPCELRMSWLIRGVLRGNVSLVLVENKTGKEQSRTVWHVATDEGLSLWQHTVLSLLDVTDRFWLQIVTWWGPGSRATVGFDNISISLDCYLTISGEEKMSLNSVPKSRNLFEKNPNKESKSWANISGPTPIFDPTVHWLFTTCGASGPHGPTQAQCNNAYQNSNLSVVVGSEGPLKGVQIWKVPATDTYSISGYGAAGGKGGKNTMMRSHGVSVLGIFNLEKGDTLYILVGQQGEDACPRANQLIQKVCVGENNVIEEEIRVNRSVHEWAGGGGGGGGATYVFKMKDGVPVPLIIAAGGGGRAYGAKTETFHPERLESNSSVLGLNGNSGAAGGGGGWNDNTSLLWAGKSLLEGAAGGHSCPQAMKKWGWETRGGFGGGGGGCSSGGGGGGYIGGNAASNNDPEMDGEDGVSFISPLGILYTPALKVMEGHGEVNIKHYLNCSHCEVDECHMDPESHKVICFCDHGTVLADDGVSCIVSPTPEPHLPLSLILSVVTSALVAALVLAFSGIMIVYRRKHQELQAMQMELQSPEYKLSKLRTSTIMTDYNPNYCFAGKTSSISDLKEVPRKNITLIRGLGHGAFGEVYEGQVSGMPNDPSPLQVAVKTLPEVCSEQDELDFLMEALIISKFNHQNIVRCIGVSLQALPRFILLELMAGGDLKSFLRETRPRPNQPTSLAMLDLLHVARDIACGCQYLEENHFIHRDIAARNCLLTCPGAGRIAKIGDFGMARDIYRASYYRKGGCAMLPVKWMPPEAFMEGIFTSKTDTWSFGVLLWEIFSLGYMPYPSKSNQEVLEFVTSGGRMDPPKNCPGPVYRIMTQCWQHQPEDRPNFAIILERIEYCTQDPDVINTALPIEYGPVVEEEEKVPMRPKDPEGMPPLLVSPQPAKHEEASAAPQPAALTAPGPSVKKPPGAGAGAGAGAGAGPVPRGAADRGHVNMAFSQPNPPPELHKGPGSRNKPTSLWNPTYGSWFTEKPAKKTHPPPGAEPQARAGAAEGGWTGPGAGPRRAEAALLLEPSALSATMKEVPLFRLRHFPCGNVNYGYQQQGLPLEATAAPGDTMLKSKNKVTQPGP
Experimental: as §1

[5] = molecular target: C-terminal region of human ALK ECD (T637-S1038) (Homo sapiens, UniProt Q9UM73); experiment: Competitive binding assay (epitope binning) by flow cytometry; conditions: antibodies to the C-terminal region
Sequence of C-terminal region of human ALK ECD (T637-S1038) (Q9UM73 19-1620): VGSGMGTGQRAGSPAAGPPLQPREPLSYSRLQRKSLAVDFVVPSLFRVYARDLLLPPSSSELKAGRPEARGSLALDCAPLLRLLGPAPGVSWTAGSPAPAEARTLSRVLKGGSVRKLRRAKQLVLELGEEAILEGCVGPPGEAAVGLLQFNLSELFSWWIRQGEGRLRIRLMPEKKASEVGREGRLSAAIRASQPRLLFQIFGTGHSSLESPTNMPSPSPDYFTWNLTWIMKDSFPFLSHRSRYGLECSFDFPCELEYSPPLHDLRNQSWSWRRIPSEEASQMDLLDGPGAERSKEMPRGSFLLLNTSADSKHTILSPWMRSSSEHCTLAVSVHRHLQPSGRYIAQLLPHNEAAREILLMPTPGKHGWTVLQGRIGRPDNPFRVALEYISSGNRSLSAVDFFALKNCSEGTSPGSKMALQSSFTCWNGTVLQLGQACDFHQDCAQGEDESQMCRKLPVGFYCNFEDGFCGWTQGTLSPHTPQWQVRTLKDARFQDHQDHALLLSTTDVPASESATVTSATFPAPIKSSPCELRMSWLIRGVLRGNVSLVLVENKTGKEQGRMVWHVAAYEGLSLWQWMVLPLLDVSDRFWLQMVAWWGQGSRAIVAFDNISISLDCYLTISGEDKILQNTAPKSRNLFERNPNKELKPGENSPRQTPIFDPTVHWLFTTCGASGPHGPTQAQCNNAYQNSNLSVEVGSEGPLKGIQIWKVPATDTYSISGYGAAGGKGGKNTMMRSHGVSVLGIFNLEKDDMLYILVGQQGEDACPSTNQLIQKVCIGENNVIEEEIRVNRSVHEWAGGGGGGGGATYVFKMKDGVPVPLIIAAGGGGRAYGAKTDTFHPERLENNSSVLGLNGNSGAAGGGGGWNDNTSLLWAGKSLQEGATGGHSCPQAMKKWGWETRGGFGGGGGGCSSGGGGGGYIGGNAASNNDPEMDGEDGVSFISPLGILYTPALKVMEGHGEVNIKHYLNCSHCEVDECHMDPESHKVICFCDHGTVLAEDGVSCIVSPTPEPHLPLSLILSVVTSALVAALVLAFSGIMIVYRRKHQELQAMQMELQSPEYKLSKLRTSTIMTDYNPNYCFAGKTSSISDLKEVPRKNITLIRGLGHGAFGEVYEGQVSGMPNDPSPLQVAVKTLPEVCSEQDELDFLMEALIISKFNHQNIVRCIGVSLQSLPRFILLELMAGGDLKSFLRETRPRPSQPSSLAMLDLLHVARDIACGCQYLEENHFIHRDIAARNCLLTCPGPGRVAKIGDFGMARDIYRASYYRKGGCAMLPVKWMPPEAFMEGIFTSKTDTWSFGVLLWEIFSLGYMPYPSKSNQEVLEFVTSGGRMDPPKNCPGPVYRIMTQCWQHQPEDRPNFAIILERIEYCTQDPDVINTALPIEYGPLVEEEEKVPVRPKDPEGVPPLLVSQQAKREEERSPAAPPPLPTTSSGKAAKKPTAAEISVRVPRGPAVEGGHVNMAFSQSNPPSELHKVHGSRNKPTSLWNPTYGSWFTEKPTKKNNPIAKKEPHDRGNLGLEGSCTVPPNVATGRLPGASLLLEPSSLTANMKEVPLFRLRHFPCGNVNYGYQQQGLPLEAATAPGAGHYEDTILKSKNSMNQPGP
Experimental: Antibodies that bind to the C-terminal region of human ALK ECD (T637-S1038) were further characterized using a competitive binding assay. A pairwise matrix approach was used whereby each antibody was fluorescently labeled and tested for its ability to bind to ALK-expressing cells pre-incubated with an unlabeled antibody. The ability of both antibodies to bind the C-terminal domain simultaneously was tested via flow cytometry. If both antibodies bound simultaneously, they were put into different bins and considered to belong to a separate epitope class.

[6] = molecular target: T2, total ALK and phosphorylated ALK in tumor homogenates (Homo sapiens, UniProt Q9UM73, F1174L); experiment: Western blot of tumor homogenates from the PDX model; type: in vivo, mouse; conditions: tumors harvested 72 hours after the second dose, vs control IgG1
T2 construct: Western blot analysis of homogenates of tumors harvested 72 hours after the second dose; from tissue; host or cells: patient-derived (PDX) neuroblastoma tumors grown in mice
T2 sequence (Q9UM73 19-1620 F1174L): as the sequence (Q9UM73 19-1620) above, with F1156L counted along it
Text: (§2) FIGS. 8A-B depict the in vivo antitumor activity of the Ab326 anti-ALK antibody in a patient-derived (PDX) neuroblastoma ALK F1174L tumor model compared with control IgG1 (A) and a western blot of tumor homogenates harvested from the patient-derived tumor model showing relative levels of total ALK and phosphorylated ALK in Ab326-treated and control IgG1-treated mice (B). GAPDH is included in the western blot of FIG. 8B as a control for protein level.
(§3) The effect of Ab326, generated in Example 1, on the patient-derived NB tumor mouse model was consistent with its inhibitory effect on phosphorylation of ALK and downstream signaling (FIG. 8A). Tumor volume was reduced over a two-week period in comparison with a control IgG1 antibody.

[7] = system: ALK (basal phosphorylation in NB1 cells); experiment: Western blot of ALK phosphorylation in NB1 cells; type: cell-based, human
Experimental: Lysed cells were subjected to SDS-PAGE, transferred to nitrocellulose and immunoblotted with antibodies against total, and phospho-specific ALK, AKT, and MAPK. FIG. 4B depicts an ELISA of NB1 cells grown in media with reduced serum and treated with 30-100 nM of each antibody for 1-2 hours. Cell lysates were incubated on ELISA plates with an anti-ALK antibody, followed by incubation with a pan phosphotyrosine antibody coupled to HRP.
Cell lysates were subjected to SDS-PAGE and transferred to nitrocellulose. Immunoblotting was performed with antibodies against total, and phospho-specific ALK, AKT, and MAPK (purchased from Cell Signaling and utilized per manufacturer's instructions). HRP (horse radish peroxidase)-conjugated secondary antibodies (Thermo Scientific, Waltham, Mass.) were used along with Supersignal West Pico Chemiluminescent Substrate (Thermo Scientific, Waltham, Mass.) to image blots.
Anti-ALK monoclonal antibodies generated in Example 1 were evaluated via Western blotting for their ability to activate or inhibit basal levels of ALK phosphorylation in NB1 cells (FIG. 4A). A subset of ALK antibodies stimulated ALK tyrosine phosphorylation and a different subset of antibodies inhibited basal levels of ALK phosphorylation. See also Table 18, below. […] That is, ALK antibodies that stimulated ALK tyrosine phosphorylation increased MAPK and AKT phosphorylation, whereas ALK antibodies that inhibited ALK tyrosine phosphorylation decreased basal levels of MAPK and AKT phosphorylation (FIG. 4A). Similar results were obtained in ELISA-based ALK phosphorylation assays from lysates of NB1 cells treated with ALK antibodies (FIG. 4B).

[8] = molecular target: murine ALK (purified mouse ALK antigen) (Mus musculus, UniProt P97793); experiment: Mouse ALK cross-reactivity, solid-state ELISA; type: binding; parameters: key: − none; + weak; ++ moderate; +++ strong; conditions: cross-reactivity with murine ALK
Sequence of murine ALK (purified mouse ALK antigen) (P97793 19-1042 limits assumed): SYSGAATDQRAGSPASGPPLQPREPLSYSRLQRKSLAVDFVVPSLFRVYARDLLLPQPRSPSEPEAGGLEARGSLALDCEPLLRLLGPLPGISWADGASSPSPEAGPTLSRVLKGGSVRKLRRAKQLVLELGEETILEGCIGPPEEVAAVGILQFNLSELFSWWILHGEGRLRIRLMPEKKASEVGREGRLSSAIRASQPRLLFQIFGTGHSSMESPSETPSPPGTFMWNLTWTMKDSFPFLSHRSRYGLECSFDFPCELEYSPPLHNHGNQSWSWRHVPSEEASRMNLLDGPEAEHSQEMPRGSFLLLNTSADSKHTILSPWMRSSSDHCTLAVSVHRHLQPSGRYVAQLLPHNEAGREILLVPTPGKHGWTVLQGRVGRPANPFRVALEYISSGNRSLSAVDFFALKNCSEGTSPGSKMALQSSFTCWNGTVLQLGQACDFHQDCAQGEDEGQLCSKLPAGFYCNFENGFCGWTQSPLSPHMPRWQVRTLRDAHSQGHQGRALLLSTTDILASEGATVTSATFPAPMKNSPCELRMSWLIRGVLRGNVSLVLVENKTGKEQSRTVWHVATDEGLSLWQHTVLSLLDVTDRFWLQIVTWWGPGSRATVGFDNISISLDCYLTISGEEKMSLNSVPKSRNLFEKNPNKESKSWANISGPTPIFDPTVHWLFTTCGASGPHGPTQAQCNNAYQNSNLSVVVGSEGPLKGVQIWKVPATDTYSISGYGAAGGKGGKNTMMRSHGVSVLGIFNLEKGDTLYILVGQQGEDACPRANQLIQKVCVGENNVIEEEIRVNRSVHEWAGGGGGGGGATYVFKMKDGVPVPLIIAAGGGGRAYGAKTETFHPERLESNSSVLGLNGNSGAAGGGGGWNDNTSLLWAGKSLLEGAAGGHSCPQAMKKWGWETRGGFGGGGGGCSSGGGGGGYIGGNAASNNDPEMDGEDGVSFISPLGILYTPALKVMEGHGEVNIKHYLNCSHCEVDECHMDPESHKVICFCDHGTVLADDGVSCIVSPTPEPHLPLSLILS
Experimental: Purified mAbs were evaluated for their ability to bind murine ALK by solid-state ELISA, or flow cytometry on Neuro-2a cells that express low levels of endogenous murine ALK. […]

[9] = system: patient-derived (PDX) neuroblastoma ALK F1174L tumor; experiment: Patient-derived (PDX) neuroblastoma ALK F1174L tumor model; type: in vivo, mouse; conditions: two weekly intraperitoneal doses at 10 mg/kg, two-week period, in comparison with control IgG1
Text: as §2
Patient-derived (PDX) neuroblastoma tumor model mice were produced. […] Mice received two weekly intraperitoneal doses of Ab326 or a control IgG1 at 10 mg/kg.
as §3

[10] = system: ALK (total protein levels in NB1 cells); experiment: ALK turnover (total protein levels) by Western blot, 24 hour treatment of NB1 cells; type: cell-based, human; parameters: key: − none; + weak; ++ moderate; +++ strong
Text: FIG. 5 depicts a Western blot of a panel of ALK antibodies.
See also Table 18, below.

- Kd [4]: 0.58 nM
- Bin/Domain (bin) [5]: 2
- phosphorylated ALK in tumor homogenates [6]: reduction
- total ALK in tumor homogenates [6]: reduction
- mouse ALK binding [8]: +++
B1: Ab326: anti-ALK monoclonal antibody; VL SEQ ID NO: 407, VH SEQ ID NO: 408 (antibody, V domains shown)
VH: QVQLQQSGAELAKPGASVKLSCKASGYTFTSYWMHWVKQRPGQGLEWIGYIKPSSGYTKYNQKFKDKATLTADKSSSTAYMQLSSLTYEDSAVYYCARDYYGSSSWFAYWGQGTLVTVSA
VL: DIVMTQSQRFMSTSVGDRVSVTCKASQNVGTNVAWYQQKPGQSPKALIYSASYRYSGVPDRFTGSGSGTDFTLTISNVQSEDLAEYFCQQYNSYPYMYTFGGGTKLEIKR
modifications: VH domain - Ab326; VL domain - Ab326
- effect on the anti-proliferative effect of crizotinib (NB1 cells [1]): enhanced
- NB1 cell morphology (NB1 cells [2]): rounded morphology
- Kd [3]: 0.94 nM
- effect on ALK activity (ALK inhibitory or ALK agonistic antibody) [7]: inhibitory
- ALK phosphorylation ([7]; effect in words): inhibitor
- tumor volume [9]: reduced
- ALK turnover [10]: −

Reference: patent US11091559B2, “Anti-ALK antibodies and methods for use thereof” (Celldex Therapeutics, Inc., priority 2015, dated 2021)
